We go through five molecules from patent US20240182909, “Checkpoint Aptamers as Therapeutics for Cancer Treatment” (Ayass Bioscience LLC, published 2024).

Holding throughout (settings): label: biotin
In series [1] the target is T1, PD-1 (UniProt Q15116 Q15116:25-170). As to the kind of experiment: competition; PD-1 as soluble competitor. The method, then: (§1) FIGS. 3A, 3B, and 3C show the assessment of competitive specificity of CTLA4 aptamers, R2-13, R2-25, R2-63, R2-81, R3-20, and R3-56 to CTLA4 protein in presence of CTLA4, NKG2A, and PD-1 proteins. ELISA-based competition assay for the specificity of the binding of CTLA4 aptamers, R2-13, R2-25, R2-63, R2-81, R3-20, and R3-56. CTLA4 protein (5.0 ug/mL) was immobilized on a MaxiSorp plate. Biotinylated CTLA4 aptamers on 5.0 uM concentration were added in the presence of different concentrations of CTLA4, PD-1, or NKG2A proteins, respectively. The bound aptamer was detected using Streptavidin-HRP and assessed by ELISA. The absorbance of each well was monitored at 450 nm on an automatic microplate reader. The percent inhibition was calculated using the formula, Percent inhibition=[1−(Ainhibitor/Auninhibitor)]×100.
T1 sequence (Q15116 25-170, one chain of several): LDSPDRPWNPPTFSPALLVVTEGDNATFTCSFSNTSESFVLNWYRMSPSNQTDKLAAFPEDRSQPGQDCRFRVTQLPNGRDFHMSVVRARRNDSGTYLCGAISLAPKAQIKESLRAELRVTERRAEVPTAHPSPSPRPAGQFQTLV

For series [2], the target named is T2, CTLA4 (cytotoxic T-lymphocyte associated protein 4) (UniProt P16410 P16410:36-161). The experiment in a line: ELONA; 5.0 uM biotinylated aptamer on immobilised CTLA4 (5.0 ug/mL), competed with soluble protein. The protocol: as §1
T2 sequence (P16410 36-161, one chain of several): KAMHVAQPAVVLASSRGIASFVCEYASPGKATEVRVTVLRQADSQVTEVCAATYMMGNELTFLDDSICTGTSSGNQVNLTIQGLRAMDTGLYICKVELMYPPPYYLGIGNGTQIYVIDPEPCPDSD
For series [3], the target named is T3, NKG2A (UniProt P26715 P26715:94-233). The experiment in a line: competition; NKG2A as soluble competitor for aptamer binding to immobilised CTLA4. The method, then: as §1
T3 sequence (P26715 94-233, one chain of several): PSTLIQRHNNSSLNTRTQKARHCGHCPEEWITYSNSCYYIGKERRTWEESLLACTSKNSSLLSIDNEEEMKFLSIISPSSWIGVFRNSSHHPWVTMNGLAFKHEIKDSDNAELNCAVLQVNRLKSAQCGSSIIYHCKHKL
Series [4] has as its target T2, CTLA4 (cytotoxic T-lymphocyte …). The experiment in a line: ELONA; called R2-25 in figure legend; 5.0 uM biotinylated aptamer on immobilised CTLA4, competed with soluble protein. The method, then:
as §1

Series [5] deals with T1, PD-1. The experiment in a line: competition; PD-1 as soluble competitor; called R2-25 in figure legend. The protocol: as §1
The target in series [6] is T1, PD-1. The experiment in a line: competition; PD-1 as soluble competitor for aptamer binding to immobilised CTLA4. The protocol:
as §1

Series [7] deals with T2, CTLA4 (cytotoxic T-lymphocyte …). As to the kind of experiment: ELONA; direct and competitive ELISA; 100-fold excess unlabelled aptamer as competitor.
Series [8] addresses T3, NKG2A. The description is as above. The method, then: FIGS. 2A and 2B show aptamer, R2-13, specific binding to CTLA4 and NKG2A is determined by Direct and Competitive ELISA assay. ELISA-based competition assay for the binding of the CTLA4 aptamer, R2-13, to CTLA4 protein and to NKG2A protein. CTLA4 protein and NKG2A protein were immobilized on a MaxiSorp plate and biotinylated R2-13 on different concentrations were added in the absence and presence of 100-fold excess of non-biotinylated respective R2-13. The bound aptamer was detected using Streptavidin-HRP and assessed by ELISA. CTLA4 protein was immobilized on a MaxiSorp plate and biotinylated R2-13 on different concentrations were added in the absence and presence of 100-fold excess of non-biotinylated respective R2-13. The bound aptamer was assessed by ELISA.

For series [9], the target named is Bovine serum albumin (BSA) (Bos taurus, UniProt P02769 P02769:25-607). As to the kind of experiment: ELONA; BSA-coated plate.
Bovine serum albumin (BSA), sequence (P02769 25-607, one chain of several): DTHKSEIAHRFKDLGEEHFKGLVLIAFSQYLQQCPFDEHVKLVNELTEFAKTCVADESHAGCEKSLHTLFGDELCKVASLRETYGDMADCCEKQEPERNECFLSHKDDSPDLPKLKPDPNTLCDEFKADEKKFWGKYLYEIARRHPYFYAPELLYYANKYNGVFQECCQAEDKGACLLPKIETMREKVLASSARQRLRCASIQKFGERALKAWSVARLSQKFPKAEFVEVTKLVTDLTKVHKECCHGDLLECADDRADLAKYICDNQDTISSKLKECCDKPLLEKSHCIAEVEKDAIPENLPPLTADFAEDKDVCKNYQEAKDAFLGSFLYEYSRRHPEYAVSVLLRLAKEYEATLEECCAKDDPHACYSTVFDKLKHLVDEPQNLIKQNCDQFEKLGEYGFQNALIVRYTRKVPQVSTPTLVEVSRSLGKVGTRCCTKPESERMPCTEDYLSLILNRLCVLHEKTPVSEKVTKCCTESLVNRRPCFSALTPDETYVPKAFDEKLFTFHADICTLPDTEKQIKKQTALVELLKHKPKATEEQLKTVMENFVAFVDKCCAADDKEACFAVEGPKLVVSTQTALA

B1: ctla4_R3_56 (ssDNA)
DNA: TTGTTGCAGGCGACGTGCGTGGGCGCACGGCCTGCAACAA
modifications: deoxyuridine (dU) in place of every T
As for B1, the binding result in the series with PD-1 [1] is listed as “no binding”; in series [2], “binds”; with NKG2A [3], “binds”.

B2: ctla4_R2_81 (ssDNA)
DNA: ACTTACAACTGCGCACGCGGGACCTCCGAGAGTTGTAAGT
modifications: deoxyuridine (dU) in place of every T
As to B2, the binding result was “no binding” in the series with PD-1 [1], “binds” in [2] and “binds” with NKG2A [3].

B3: ctla4_R3_25 (ssDNA)
DNA: GACTTCGCGGAGGTAAACTGCACGGGGGTGCCGCGAAGTC
modifications: deoxyuridine (dU) in place of every T
Turning to B3, the binding result is recorded as “binds” in the series with NKG2A [3], “binds” in [4] and “no binding” in the series with PD-1 [5].

B4: ctla4_R2_13 (ssDNA)
DNA: ACACTTTTCCCCCACCTGATCCTCAGTTCCGGAAAAGTGT
modifications: deoxyuridine (dU) in place of every T
With B4, the binding result in the series with PD-1 [6] is on record as “no binding”; in series [7], “binds”; with NKG2A [8], “binds”; in series [9], “no binding”.

B5: ctla4_R3_20 (ssDNA)
DNA: GACCTGCCGGCGGAGCTGCGTCCCGCTGCACCGGCAGGTC
modifications: deoxyuridine (dU) in place of every T
Take B5: the binding result was “no binding” in the series with PD-1 [1], “binds” in [2] and “binds” with NKG2A [3].
